Data: the supplement of paper PMC11780869

System: Bacillus subtilis
Assay: cleaved RNA product abundance (RNA/gDNA barcode ratio) relative to median wild-type variant (ratio to wild type); higher = more accumulation of the downstream cleavage product
Conditions: experiment (reporter, strain, medium): exp 2b: truncated aprE reporter, strain BJT200; cleavage site: cggR-gapA (positions -7 to +36 mutated)
Summary of the method: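 Cleaved product abundance is expressed as the RNA:gDNA barcode ratio per construct, scaled to the median construct carrying the unmutated site. The constructs were barcoded, mutagenized RNase Y cleavage-site windows in truncated aprE or tetM reporter mRNAs integrated into the B. subtilis chromosome. Cultures grew in LB at 37°C from OD600 0.0003 to 0.3 before cleaved RNA was gel-selected and barcode-sequenced.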

| Sequence | cleaved RNA product abundance |
| --- | --- |
| ACAGACGAAGGAGCCGCAAAGACGTTATTAAGGTATGAATAATCCCTCAATATAAATATCTCTCACTTATTTAAA | 0.0832 |
| ACAGACGAAGGAGCCGCAAAGAAGTTATTAAGGGATGAAAAATCCATCAATATAAATATCTCTCACTTATTTAAA | 0.141 |
| ACAGACGAAGGAGCCGCAAAGAAGTTATTAAGGGAAGAATAATCTCTCAATATAAATATCTCTCACTTATTTAAA | 0.124 |
| ACAGACGAAGGAGCCGCACATAAGTTATTAAGGGATGAATAATCCCTCAATATAAATATCTCTCACTTATTTAAA | 0.732 |
| ACAGACGAAGGAGCCGCAAAGAAGTTATTAAGGGATGTATAATCCCTCAATATATATATCTCTCACTTATTTAAA | 0.631 |
| ACAGACGAAGGAGCCGCAAAGAAGTTATTAAGGGATGACTAATCCCTCAATATAAATATCTCTCACTTATTTAAA | 0.603 |
| ACAGACGAAGGAGCCGCAAAGATGTTATTAACGGATGAATAATCCCTCAATATAAATATCTCTCACTTATTTAAA | 0.104 |
| ACAGACGAAGGAGCCGCAATGAAGTTATTAAGGGATGAATAATCCCTCAATATTAATATCTCTCACTTATTTAAA | 0.226 |
| ACAGACGAAGGAGCCGCAATGAAGTTATTAAGGGAAGAATAATCCCTCAATATAAATATCTCTCACTTATTTAAA | 0.389 |
| ACAGACGAAGGAGCCGCAAAGAAGTTATTAAGTGATGAATAATCCCTCAATATAAATCTCTCTCACTTATTTAAA | 0.116 |
| ACAGACGAAGGAGCCGCAAAGAAGTTATAAAGGGATGAATGATCCCTCAATATAAATATCTCTCACTTATTTAAA | 0.193 |
| ACAGACGAAGGAGCCGCAAAGAAGTTATTAAGAGATGAATAATCCCTCCATATAAATATCTCTCACTTATTTAAA | 0.0792 |

Same assay, conditions: experiment (reporter, strain, medium): exp 4a: truncated aprE reporter, strain BJT201 with 2% xylose (RNase J1 expressed); cleavage site: cggR-gapA (positions -7 to +36 mutated)

| Sequence | cleaved RNA product abundance |
| --- | --- |
| ACAGACGAAGGAGCCGCAAAGACGTTATTAAGGTATGAATAATCCCTCAATATAAATATCTCTCACTTATTTAAA | 0.153 |
| ACAGACGAAGGAGCCGCAAAGAAGTTATTAAGGGCTTAATAATCCCTCAATATAAATATCTCTCACTTATTTAAA | 0.481 |
| ACAGACGAAGGAGCCGCAAAGAAGTTATTAAGGGCTGAATAATCCCCCAATATAAATATCTCTCACTTATTTAAA | 0.157 |
| ACAGACGAAGGAGCCGCAAAGAAGTTATTAAGGGATGAAAAATCCATCAATATAAATATCTCTCACTTATTTAAA | 0.223 |
| ACAGACGAAGGAGCCGCAAAGAAGTTATTAAGGGATGAATAATCCCGTAATATAAATATCTCTCACTTATTTAAA | 0.682 |
| ACAGACGAAGGAGCCGCAAAGAAGTTATTAAGGGAAGAATAATCTCTCAATATAAATATCTCTCACTTATTTAAA | 0.201 |
| ACAGACGAAGGAGCCGCAAAGAACTTATTAAGGGAGGAATAATCCCTCAATATAAATATCTCTCACTTATTTAAA | 0.315 |
| ACAGACGAAGGAGCCGCAAAGAAGTTATTAAGGGATGAATAATCACTCAATATATATATCTCTCACTTATTTAAA | 0.132 |
| ACAGACGAAGGAGCCGCACATAAGTTATTAAGGGATGAATAATCCCTCAATATAAATATCTCTCACTTATTTAAA | 1.07 |
| ACAGACGAAGGAGCCGCAAAGAAGTTATTAAAGGATCAATAATCCCTCAATATAAATATCTCTCACTTATTTAAA | 0.115 |
| ACAGACGAAGGAGCCGCAAAGAAGTTATTAAGAGATGAATAATCCCTCATTATAAATATCTCTCACTTATTTAAA | 0.177 |
| ACAGACGAAGGAGCCGCAAAGAACTTATTAAGGGATGAATAATCCCTCAACATAAATATCTCTCACTTATTTAAA | 0.227 |
| ACAGACGAAGGAGCCGCAAAGAATGTATTAAGGGATGAATAATCCCTCAATATAAATATCTCTCACTTATTTAAA | 0.695 |
| ACAGACGAAGGAGCCGCAAAGAAGTTATTAAGGGATGACTAATCCCTCAATATAAATATCTCTCACTTATTTAAA | 0.679 |
| ACAGACGAAGGAGCCGCAAAGAAGTGATTAAGGGATAAATAATCCCTCAATATAAATATCTCTCACTTATTTAAA | 0.246 |
| ACAGACGAAGGAGCCGCAAAGAAGTTATTACTGGATGAATAATCCCTCAATATAAATATCTCTCACTTATTTAAA | 0.199 |
| ACAGACGAAGGAGCCGCAAAGAAGGTATTAAGGGATGAATAATCCCTCAATATAACTATCTCTCACTTATTTAAA | 0.73 |
| ACAGACGAAGGAGCCGCAAAGAAGTTATTAAGAGATGAATAATCCCTCAATATAACTATCTCTCACTTATTTAAA | 0.0935 |
| ACAGACGAAGGAGCCGCAAAGAAGTTATTAAGGCATGAATAATCGCTCAATATAAATATCTCTCACTTATTTAAA | 0.0686 |
| ACAGACGAAGGAGCCGCAAAGATGTTATTAACGGATGAATAATCCCTCAATATAAATATCTCTCACTTATTTAAA | 0.151 |
| ACAGACGAAGGAGCCGCAAAGAAGTTATTAAGGGATGAATAATCCCTCAATATAACCATCTCTCACTTATTTAAA | 0.296 |
| ACAGACGAAGGAGCCGCAATGAAGTTATTAAGGGAAGAATAATCCCTCAATATAAATATCTCTCACTTATTTAAA | 0.702 |
| ACAGACGAAGGAGCCGCAAAGAAGTTATTGAGGGATGAATAATCCCTCAATATACATATCTCTCACTTATTTAAA | 0.0596 |
| ACAGACGAAGGAGCCGCAAAGAAGTTATAAAGGGATGAATGATCCCTCAATATAAATATCTCTCACTTATTTAAA | 0.273 |
| ACAGACGAAGGAGCCGCAAAAAAGTTATTAAGGGATGAATAATCCCTCCATATAAATATCTCTCACTTATTTAAA | 0.348 |
| ACAGACGAAGGAGCCGCAAAAAAGTTAGTAAGGGATGAATAATCCCTCAATATAAATATCTCTCACTTATTTAAA | 0.374 |
| ACAGACGAAGGAGCCGCAACGAAGTTATTAAGAGATGAATAATCCCTCAATATAAATATCTCTCACTTATTTAAA | 0.137 |
| ACAGACGAAGGAGCCGCAAAGAAGTTATTAAGGTATGAATAATCCCGCAATATAAATATCTCTCACTTATTTAAA | 0.0533 |

Same assay, conditions: experiment (reporter, strain, medium): exp 6: tetM reporter, strain 168; cleavage site: cggR-gapA (positions -7 to +36 mutated)

| Sequence | cleaved RNA product abundance |
| --- | --- |
| ACAGACGAAGGAGCCGCAAAGAAGTTATTAAGGGATGACTAATCCCTCAATATAAATATCTCTCACTTATTTAAA | 0.978 |

Same assay, conditions: experiment (reporter, strain, medium): exp 8a: truncated aprE reporter, strain BJT201 with 2% xylose (RNase J1 expressed); cleavage site: glnRA (positions -5 to +31 mutated)

| Sequence | cleaved RNA product abundance |
| --- | --- |
| CGACATGTCCCGCTTCTTTCATTATTCCGTTAGCGACTGTTTTGCTATATACATTTACCTTTTAAGAGGAGGAAT | 0.759 |
| CGACATGTCCCGCTTCTTTCATTAATCCGTTAGCAACTGATTTGCTATAAACATTTACCTTTTAAGAGGAGGAAT | 0.686 |
| CGACATGTCCCGCTTCTTTCATTAATCCGTTAGCAACTGTTTTGCTATAAACATTTATCTTTTAAGAGGAGGAAT | 0.717 |
| CGACATGTCCCGCTTCTTTCATTAATGCGATAGCAACTGTTTTGCTATATACATTTACCTTTTAAGAGGAGGAAT | 0.395 |
| CGACATGTCCCGCTTCTTTCATTAATCGATTAGCAACTGTTTTGCTATATACATTTACCTTTTAAGAGGAGGAAT | 0.79 |
| CGACATGTCCCGCTTCTTTCATTAATCCGTTAGCAACTGTTTTGCTATACACATTTACCTTTTAAGAGGAGGAAT | 0.459 |
| CGACATGTCCCGCTTCTTTCATTAATCCGTTAGCTACTGTTTTGCTATATACATTTATCTTTTAAGAGGAGGAAT | 0.798 |
| CGACATGTCCCGCTTCTTTCATTAATCCGTTAGCAACTAGTTTGCTATATACATTTACCTTTTAAGAGGAGGAAT | 1.29 |
| CGACATGTCCCGCTTCTTTCATTAAACCGTTAGCAACTGTTTTGCTATATACATTTACCATTTAAGAGGAGGAAT | 1.29 |
| CGACATGTCCCGCTTCTTTCATTAATCCGTTAGCAACTGTTTTGCTATATACATTACCCTTTTAAGAGGAGGAAT | 0.597 |
| CGACATGTCCCGCTTCTTTCATTAATCCGTTAGCAACTGTTGTGCTATAAACATTTACCTTTTAAGAGGAGGAAT | 0.453 |
| CGACATGTCCCGCTTCTTTCATTAATCCGTTATCAACTGTTTGGCTATATACATTTACCTTTTAAGAGGAGGAAT | 0.231 |
| CGACATGTCCCGCTTCTTTCATTAATCCGTTAGCAAGTTTTTTGCTATATACATTTACCTTTTAAGAGGAGGAAT | 0.974 |
| CGACATGTCCCGCTTCTTTCATTAATCCGTTAGCAAATGTTTTGCAATATACATTTACCTTTTAAGAGGAGGAAT | 0.304 |
| CGACATGTCCCGCTTCTTTCATTAATCCGTTAGCAAATGTTTTGCTATAAACATTTACCTTTTAAGAGGAGGAAT | 0.584 |
| CGACATGTCCCGCTTCTTTCATTAATCAGTTAGCAACTGTGTTGCTATATACATTTACCTTTTAAGAGGAGGAAT | 0.251 |
